Substitutions are numbered along the chain they refer to. Names and notes keep the numbering of the source.
B1: human TIGIT stably expressed on cells (Jurkat; 293T) (receptor)
chain: MMTGTIETTGNISAEKGGSIILQCHLSSTTAQVTQVNWEQQDQLLAICNADLGWHISPSFKDRVAPGPGLGLTLQSLTVNDTGEYFCIYHTYPDGTYTGRIFLEVLESSVAEHGARFQIPLLGAMAATLVVICTAVIVVVALTRKKKALRIHSVEGDLRRKSAGQEEWSPSAPSPPGSCVQAEAAPAGLCGEQRGEDCAELHDYFNVLSYRSLGNCSFFTETG
notes: the expression vector's insert is not described further; also called h-TIGIT; human TIGIT transfected Jurkat cells
B2: 1G1-1C12 VHH (VHH)
VHH: QVQLVESGGGVVQPGRSLRLSCAASGPSFSSYPMGWFRQAPGKERESVAAISSDLRFTYYADSVKGRFTISRDNSKNTLYLQMNSLRAEDTAVYYCAARDSGSGYYSRKQWYDYWGQGTLVTVSS
notes: VHH in bacterial supernatant
B3: Bivalent 2A3 antibody (2A3-Fc), 2A3 VHH with human IgG1 CH2 and CH3 domains (Fc fusion)
chain: B2 VHH with P27G, L55M, S103V, K109A
notes: Expressed in ExpiCHO, protein A purified; also called 2A3-Fc mAb; 2A3 clone; not shown: human IgG1 CH2 and CH3 domains
B4: 2A3-LT-Fc VLPLL (Fc mutations L235V, F243L, R292P, Y300L and P396L) (Fc fusion)
chain: QVQLVESGGGVVQPGRSLRLSCAASGGSFSSYPMGWFRQAPGKERESVAAISSDLRFTYYADSVKGRFTISRDNSKNTLYLQMNSLRAEDTAVYYCAARTSGVGYYSRAQWYDYWGQGTLVTVSSEPKSCDKTHTCPPCPAPELVGGPSVFLLPPKPKDTLMISRTPEVTCVVVDVSHEDPEVKFNWYVDGVEVHNAKTKPPEEQYNSTLRVVSVLTVLHQDWLNGKEYKCKVSNKALPAPIEKTISKAKGQPREPQVYTLPPSREEMTKNQVSLTCLVKGFYPSDIAVEWESNGQPENNYKTTPLVLDSDGSFFLYSKLTVDKSRWQQGNVFSCSVMHEALHNHYTQKSLSLSPGK
notes: also called VLPLL mutant; VPVLL (as printed once)

Legend:
[1] = biological target: T1, 1C12-EREF humanized bivalent antibody (human, UniProt P01857-1 104-330 = IgG part, limits assumed); experiment: flow cytometry, whole cell binding on h-TIGIT transfected Jurkat cells; anti-human IgG Fc AlexaFluor488 secondary
T1 construct: domain: CH2 and CH3; Called humanized bivalent antibody; the Fc part is not restated; also called 1C12 (F-EREF)
Procedure: (§1) The binding affinities of the humanized bivalent antibodies to human TIGIT were determined by whole cell binding to h-TIGIT stably expressed on Jurkat cells. Briefly, antibodies were incubated with h-TIGIT transfected Jurkat cells (0.2×10⁶/well in 100 μl) for 30 min in FACS buffer. The cells were washed once, then incubated with anti-human IgG Fc AlexaFluor488 (1:500).

[2] = biological target: T2, 1C12-EREW humanized bivalent antibody (human, UniProt P01857-1 104-330 = IgG part, limits assumed); experiment: as above
T2 construct: domain: CH2 and CH3; Called humanized bivalent antibody; the Fc part is not restated; also called 1C12 (F-EREW)
Procedure: as §1

[3] = biological target: T3, 1C12-GLEW humanized bivalent antibody (human, UniProt P01857-1 104-330 = IgG part, limits assumed); experiment: as above
T3 construct: domain: CH2 and CH3; Called humanized bivalent antibody; the Fc part is not restated; also called 1C12(F-GLEW)
Procedure: as §1

[4] = biological target: T4, 1G1-F-G-ERES humanized bivalent antibody (human, UniProt P01857-1 104-330 = IgG part, limits assumed); experiment: as above
T4 construct: domain: CH2 and CH3; Called humanized bivalent antibody; the Fc part is not restated
Procedure: as §1

[5] = biological target: T5, 1G1-F-A-ERES humanized bivalent antibody (human, UniProt P01857-1 104-330 = IgG part, limits assumed); experiment: as above
T5 construct: domain: CH2 and CH3; Called humanized bivalent antibody; the Fc part is not restated
Procedure: as §1

[6] = biological target: T6, 2B7 bivalent VHH antibody (VHH with human CH2 and CH3) (human, UniProt P01857-1 104-330 = IgG part, limits assumed); experiment: flow cytometry, whole cell binding on Jurkat cells stably expressing human TIGIT; Alexa Fluor 488 anti-human IgG Fc secondary
T6 construct: domain: CH2 and CH3; Expressed in ExpiCHO, Protein A purified
Source text: (§2) FIGS. 1A-1C depict whole cell binding of representative VHH bivalent antibodies to human TIGIT determined by flowcytometry assays. […] Y axis represents Mean Fluorescence Intensity of AlexaFlour 488. X axis represents antibody concentrations in nanomolar. […] FIG. 1C is a schematic of the structure of a TIGIT VHH bivalent antibody.
(§3) Jurkat cells stably expressing human TIGIT and NFAT reporter gene were established. Specifically, Jurkat cells were transfected with human TIGIT expression vector by electroporation, and cells stably expressing human TIGIT were selected by 1 μg/ml puromycin during cell culture. Representative antibody clones were incubated at different concentrations with h-TIGIT stably expressing Jurkat cells (0.2×10⁶/ml) in 100 μl/well in 96-well plate in FACS buffer (PBS with 1.5% FBS) for 30 min. After washing, Alexaflour 488 conjugated anti-human IgG Fc secondary antibody (Alexa Fluor® 488 AffiniPure Goat Anti-Human IgG, Fcγ fragment specific, Jackson labs, 1:500 dilution) was added and incubated for 30 min. After washing, mean fluorescence intensity was measured using CytoFlex (Beckman Coulter) by gating live cell population. Binding affinity was calculated using GraphPad Prism.

[7] = biological target: T7, 3G6 bivalent VHH antibody (VHH with human CH2 and CH3) (human, UniProt P01857-1 104-330 = IgG part, limits assumed); experiment: as above
T7 construct: domain: CH2 and CH3
Source text: as §2, §3

[8] = biological target: T8, 2B10 bivalent VHH antibody (VHH with human CH2 and CH3) (human, UniProt P01857-1 104-330 = IgG part, limits assumed); experiment: as above
T8 construct: domain: CH2 and CH3
Source text: as §2, §3

[9] = biological target: T9, 3G7 bivalent VHH antibody (VHH with human CH2 and CH3) (human, UniProt P01857-1 104-330 = IgG part, limits assumed); experiment: as above
T9 construct: domain: CH2 and CH3
Source text: as §2, §3

[10] = biological target: T10, 13H11 bivalent VHH antibody (VHH with human CH2 and CH3) (human, UniProt P01857-1 104-330 = IgG part, limits assumed); experiment: as above
T10 construct: domain: CH2 and CH3
Source text: as §2, §3

[11] = biological target: T11, 15A5 bivalent VHH antibody (VHH with human CH2 and CH3) (human, UniProt P01857-1 104-330 = IgG part, limits assumed); experiment: as above
T11 construct: domain: CH2 and CH3
Source text: as §2, §3

[12] = biological target: T12, recombinant human TIGIT extra cellular domain (ECD) protein (human, UniProt Q495A1 22-138); experiment: ELISA, VHH in supernatant
T12 construct: Purchased protein; it begins with the signal peptide; also called h-TIGIT ECD; human TIGIT ECD
T12 sequence: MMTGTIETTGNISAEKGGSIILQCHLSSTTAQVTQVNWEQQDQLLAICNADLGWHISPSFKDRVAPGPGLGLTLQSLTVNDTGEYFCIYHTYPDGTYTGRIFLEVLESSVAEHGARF

recombinant mouse-TIGIT = biological target: T13, recombinant mouse-TIGIT (mouse, UniProt P86176 29-148, limits assumed); experiment: ELISA
T13 sequence (looked up): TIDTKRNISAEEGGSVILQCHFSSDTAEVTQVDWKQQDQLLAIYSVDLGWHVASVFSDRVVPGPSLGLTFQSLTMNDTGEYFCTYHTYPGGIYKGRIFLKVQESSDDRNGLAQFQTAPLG

[13] = biological target: B1; experiment: cell-based or functional assay
[14] = biological target: B1; experiment: cell-based or functional assay; remark: listed apart in the source
[15] = biological target: B1; experiment: whole cell binding, flow cytometry, n=3
[16] = biological target: T14, recombinant cynomolgus TIGIT (cyno-TIGIT ECD) (cynomolgus monkey, UniProt A0A7N9I9V4 89-209); experiment: ELISA on recombinant cyno-TIGIT
T14 construct: extracellular domain

[17] = biological target: T12, recombinant human TIGIT extra cellular …; experiment: ELISA on recombinant human TIGIT ECD
[18] = biological target: B1; experiment: flow cytometry, whole cell binding assay on human TIGIT expressing cells (upper panel)
[19] = biological target: T15, recombinant ECD of mouse FcγRIV (mouse, UniProt A0A0B4J1G0 21-203); experiment: Octet (ForteBio) biolayer interferometry; sensor loaded with recombinant ECD of mouse FcγRIV; antibody at 5 concentrations (not given)
T15 sequence: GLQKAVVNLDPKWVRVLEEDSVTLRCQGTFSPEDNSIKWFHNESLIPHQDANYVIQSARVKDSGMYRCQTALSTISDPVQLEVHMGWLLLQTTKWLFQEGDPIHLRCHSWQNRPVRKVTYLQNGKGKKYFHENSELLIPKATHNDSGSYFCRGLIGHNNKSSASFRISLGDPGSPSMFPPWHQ
Source text: (§4) Y axis represents association, dissociation & Rmax. X axis represents time in second.

[20] = biological target: T16, recombinant ECD of human FcγRIIB (human, UniProt P31994 43-217); experiment: Octet (ForteBio) biolayer interferometry; sensor loaded with recombinant ECD of human FcγRIIB; antibody at 5 concentrations (not given)
T16 construct: extracellular domain
T16 sequence (looked up): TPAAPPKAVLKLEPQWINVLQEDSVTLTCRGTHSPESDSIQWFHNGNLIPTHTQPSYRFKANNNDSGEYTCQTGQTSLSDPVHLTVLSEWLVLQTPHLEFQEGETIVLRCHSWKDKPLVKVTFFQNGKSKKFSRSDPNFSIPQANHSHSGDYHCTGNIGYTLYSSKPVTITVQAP
Source text: as §4

[21] = biological target: T17, recombinant ECD of human FcγRIIIA (human, UniProt P08637 17-208); experiment: Octet (ForteBio) biolayer interferometry; sensor loaded with recombinant ECD of human FcγRIIIA; antibody at 5 concentrations (not given)
T17 construct: extracellular domain
Source text: as §4

T17 sequence (P08637 17-208): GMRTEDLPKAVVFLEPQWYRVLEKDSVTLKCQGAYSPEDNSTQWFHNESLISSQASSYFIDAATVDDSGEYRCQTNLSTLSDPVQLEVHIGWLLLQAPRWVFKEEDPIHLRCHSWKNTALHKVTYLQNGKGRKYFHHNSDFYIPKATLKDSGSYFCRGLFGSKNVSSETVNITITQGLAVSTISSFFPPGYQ
T14 sequence (A0A7N9I9V4 entry or part of it): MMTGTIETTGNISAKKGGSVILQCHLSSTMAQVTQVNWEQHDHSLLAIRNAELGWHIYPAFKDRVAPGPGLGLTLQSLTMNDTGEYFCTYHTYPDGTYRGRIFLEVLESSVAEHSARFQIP
T10 sequence (P01857 other isoform, or with tags, fused parts or gaps limits assumed): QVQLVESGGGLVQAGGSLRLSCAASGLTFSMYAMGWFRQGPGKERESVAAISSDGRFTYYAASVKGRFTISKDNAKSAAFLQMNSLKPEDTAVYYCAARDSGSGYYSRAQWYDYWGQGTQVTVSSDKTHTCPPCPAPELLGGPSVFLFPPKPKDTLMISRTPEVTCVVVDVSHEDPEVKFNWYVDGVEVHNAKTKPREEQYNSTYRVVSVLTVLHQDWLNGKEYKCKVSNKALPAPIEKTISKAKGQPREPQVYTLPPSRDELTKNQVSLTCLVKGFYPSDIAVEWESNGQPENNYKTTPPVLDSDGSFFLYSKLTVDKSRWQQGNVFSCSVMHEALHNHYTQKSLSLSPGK
T7 sequence (P01857 other isoform, or with tags, fused parts or gaps limits assumed): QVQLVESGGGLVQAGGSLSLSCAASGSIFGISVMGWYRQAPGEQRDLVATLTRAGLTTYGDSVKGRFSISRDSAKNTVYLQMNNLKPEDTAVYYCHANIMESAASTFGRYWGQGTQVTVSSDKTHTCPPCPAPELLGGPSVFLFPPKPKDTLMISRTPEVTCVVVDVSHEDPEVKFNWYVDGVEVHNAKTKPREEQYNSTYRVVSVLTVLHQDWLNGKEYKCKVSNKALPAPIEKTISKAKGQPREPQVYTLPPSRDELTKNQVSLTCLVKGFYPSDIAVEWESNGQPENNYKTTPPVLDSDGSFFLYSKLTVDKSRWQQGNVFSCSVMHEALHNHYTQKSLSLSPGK
T9 sequence (P01857 other isoform, or with tags, fused parts or gaps limits assumed): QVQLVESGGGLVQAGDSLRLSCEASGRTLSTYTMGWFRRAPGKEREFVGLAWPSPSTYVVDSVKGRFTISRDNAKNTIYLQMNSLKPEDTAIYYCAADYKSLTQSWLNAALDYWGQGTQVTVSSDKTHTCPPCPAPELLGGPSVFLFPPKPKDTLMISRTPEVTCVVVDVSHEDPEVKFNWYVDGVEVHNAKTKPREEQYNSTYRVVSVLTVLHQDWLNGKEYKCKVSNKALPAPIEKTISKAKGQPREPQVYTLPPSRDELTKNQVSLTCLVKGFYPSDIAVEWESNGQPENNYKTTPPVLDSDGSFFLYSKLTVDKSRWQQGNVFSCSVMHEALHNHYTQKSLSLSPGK
T6 sequence (P01857 other isoform, or with tags, fused parts or gaps limits assumed): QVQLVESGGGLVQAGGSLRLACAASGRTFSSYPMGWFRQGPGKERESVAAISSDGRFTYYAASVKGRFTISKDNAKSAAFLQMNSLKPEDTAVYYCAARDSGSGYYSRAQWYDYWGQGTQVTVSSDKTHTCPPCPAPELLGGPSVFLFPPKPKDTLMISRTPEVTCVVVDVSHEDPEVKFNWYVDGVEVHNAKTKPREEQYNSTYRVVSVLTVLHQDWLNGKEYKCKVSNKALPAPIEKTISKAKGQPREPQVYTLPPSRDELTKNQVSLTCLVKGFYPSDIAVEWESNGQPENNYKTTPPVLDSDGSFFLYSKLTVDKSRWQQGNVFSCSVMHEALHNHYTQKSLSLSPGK
T8 sequence (P01857 other isoform, or with tags, fused parts or gaps limits assumed): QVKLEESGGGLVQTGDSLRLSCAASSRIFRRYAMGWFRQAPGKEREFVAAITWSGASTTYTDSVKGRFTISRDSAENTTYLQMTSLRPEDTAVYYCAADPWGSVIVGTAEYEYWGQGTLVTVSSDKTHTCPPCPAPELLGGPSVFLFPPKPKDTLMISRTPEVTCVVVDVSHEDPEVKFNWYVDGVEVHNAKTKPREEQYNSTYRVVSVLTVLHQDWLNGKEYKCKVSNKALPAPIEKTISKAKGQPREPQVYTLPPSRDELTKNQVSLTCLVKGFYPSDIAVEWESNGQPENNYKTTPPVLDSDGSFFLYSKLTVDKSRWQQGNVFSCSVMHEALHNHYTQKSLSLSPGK
T11 sequence (P01857 other isoform, or with tags, fused parts or gaps limits assumed): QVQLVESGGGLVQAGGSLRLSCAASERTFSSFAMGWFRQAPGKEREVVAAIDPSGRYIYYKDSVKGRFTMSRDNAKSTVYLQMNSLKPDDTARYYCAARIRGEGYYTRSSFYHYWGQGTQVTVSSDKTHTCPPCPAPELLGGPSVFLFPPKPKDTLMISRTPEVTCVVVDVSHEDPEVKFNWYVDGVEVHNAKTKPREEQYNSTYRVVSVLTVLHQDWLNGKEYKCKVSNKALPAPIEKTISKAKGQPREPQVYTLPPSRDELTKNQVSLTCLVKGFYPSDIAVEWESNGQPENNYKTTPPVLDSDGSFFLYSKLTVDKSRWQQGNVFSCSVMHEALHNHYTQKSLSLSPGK

Question: Does B1 bind [1]?
Answer: Result: binds

Question: Does B1 bind [2]?
Answer: Result: binds

Question: Does B1 bind [3]?
Answer: Result: binds

Question: Does B1 bind [4]?
Answer: Result: binds

Question: Does B1 bind [5]?
Answer: Result: binds

Question: Does B1 bind [6]?
Answer: Result: binds

Question: Does B1 bind [7]?
Answer: Result: binds

Question: Does B1 bind [8]?
Answer: Result: binds

Question: Does B1 bind [9]?
Answer: Result: binds

Question: Does B1 bind [10]?
Answer: Result: binds

Question: Does B1 bind [11]?
Answer: Result: binds

Question: Does B2 bind [12]?
Answer: Result: binds

Question: Does B3 bind (recombinant mouse-TIGIT)?
Answer: Result: no binding

Question: And the “EC50, TIGIT blockade NFAT luciferase reporter assay” value [13]?
Answer: Its value is 480 pM.

Question: What about the “EC50 (read off the curve); NFAT reporter activity (RLU), human TIGIT blockade reporter assay (lower panel)” value [14] of the same binder?
Answer: Its value is ~1000 pM.

Question: And the EC50 [15]?
Answer: The EC50 was 320 pM.

Question: What about the “EC50 (read off the curve)” value [16] of the same binder?
Answer: Its value is ~0.1 µg/mL.

Question: And the “EC50 (read off the curve)” value [17]?
Answer: The value was ~0.1 µg/mL.

Question: What about the “EC50 (read off the curve)” value [18] of the same binder?
Answer: Its value is ~500 pM.

Question: Does B4 bind [19]?
Answer: Result: binds

Question: Does B4 bind [20]?
Answer: Result: binds

Question: Does B4 bind [21]?
Answer: Result: binds

— patent US20230037911A1 (SHANGHAI HENLIUS BIOTECH, published 2023)
